The values that follow come from patent US20150301046A1 (published 2015).

Test [1] has as its target T1, CD4 (cell surface receptor molecule on PBMCs) (human, UniProt P01730 26-458).
T1 construct: whole, on cells; also called CD4 receptor molecule
Nature of the test: flow cytometry on PBMCs, Fab multimerized on Strep-Tactin PE. On the procedure: For staining of a CD4 receptor molecule specific target cell population in a mixture of cells, Strep-Tactin® labeled with phycoerythrine as a fluorescent label (IBA GmbH, Göttingen, Germany) was used as multimerization reagent together with the monomeric CD4 binding Fab-One-STrEP fragment of the variants of the antibody 13B8.2 (that served as receptor binding reagent) as described below. For FACS analysis 5×10⁶ PBMCs were incubated with Fab multimers consisting of 0.2 μg Fab-fragment (comprising binding site B) equipped with the One-STrEP-tag (binding partner C) as receptor binding reagent and 0.75 μg Strep-Tactin® PE (IBA GmbH, Göttingen, Germany) as multimerization reagent using the protocol below. In addition, after FACS separation, the multivalent complexes were disrupted in a portion of each of the stained cells by addition of biotin as described below. […]
For staining and dissociation experiments, 5×10⁶ PBMCs were incubated with the respective anti-CD4 Fab-multimer-Strep-Tactin® PE complexes or with the corresponding Fab-monomers (the latter not complexed with Strep-Tactin® PE). […] As expected from the monomer staining experiments, no remaining Fab monomers could be detected for mutants 2, 3 and 4, whereas substantial residual cell surface bound Fab of the wild-type and mutant 1 variants was observed.

Test [2] addresses T1, CD4 (cell surface receptor molecule on …). The experiment in a line: flow cytometry on PBMCs, Fab multimerized on Strep-Tactin PE (before the Western blot experiment). On the procedure:
CD4 Fab-multimers were generated with the different anti-CD4 Fab-mutants listed in Table 1 and further specified in FIG. 2 and Strep-Tactin® PE (IBA GmbH, Göttingen, Germany). PBMCs were incubated with the different CD4 Fab-multimers and consistent cell staining in each sample was verified by flow cytometry (solid line compared to the tinted histogram representing unstained cells). Then, cells were treated with D-biotin and subsequently washed. Finally, washed cells were lysed, and the soluble (S) and insoluble (I) fractions were analyzed for remaining Fab-monomers using highly specific anti-Strep-Tag® antibodies (StrepMAB-Classic Horse Radish Peroxidase (HRP) conjugate; IBA GmbH, Göttingen, Germany). To control application of consistent amounts of insoluble cell material, β-actin was detected simultaneously with a primary antibody against β-actin from rabbit (Santa Cruz Biotechnology Inc., Santa Cruz, USA) and a secondary antibody against rabbit Ig (immunoglobulin) conjugated to HRP (Sigma, St. Louis, USA). […]
In general terms: A flow cytometer gives signals particle by particle.

B1: 13B8.2 Fab fragment (Fab, V domains shown)
VH: QVQLKQSGPGLVQPSQSLSITCTVSGFSLTTFGVHWVRQSPGKGLEWLGVIWRSGITDYNVPFMSRLSITKDNSKSQVFFKLNSLQPDDTAIYYCAKNDPGTGFAYWGQGTLVTVSA
VL: DIQMTQSPASLSASVGETVTFTCRASEMIYSYLAWYQQKQGKSPQLLVHDAKTLAEGVPSRFSGGGSGTQFSLKINTLQPEDFGTYYCQHHYGNPPTFGGGTKLEIKR
notes: Chimeric Fab expressed in the periplasm of E. coli; In the staining it was used as a monomer or multimerized on Strep-Tactin PE; also called CD4 wt (13B8.2); 13B8.2 wildtype (wt) Fab fragment
Consider B1, for which the binding result in test [1] is “binds”.

B2: mutant 13B8.2 Fab fragment, CD4 mutant 1 (F100A) (Fab, V domains shown)
VH: QVQLKQSGPGLVQPSQSLSITCTVSGFSLTTFGVHWVRQSPGKGLEWLGVIWRSGITDYNVPFMSRLSITKDNSKSQVFFKLNSLQPDDTAIYYCAKNDPGTGAAYWGQGTLVTVSA
VL: DIQMTQSPASLSASVGETVTFTCRASEMIYSYLAWYQQKQGKSPQLLVHDAKTLAEGVPSRFSGGGSGTQFSLKINTLQPEDFGTYYCQHHYGNPPTFGGGTKLEIKR
notes: also called Fab mutant 1; F100K-H
As to B2, in test [1], the binding result was “binds”.

B3: mutant 13B8.2 Fab fragment, CD4 mutant 3 (H35A) (Fab, V domains shown)
VH: QVQLKQSGPGLVQPSQSLSITCTVSGFSLTTFGVAWVRQSPGKGLEWLGVIWRSGITDYNVPFMSRLSITKDNSKSQVFFKLNSLQPDDTAIYYCAKNDPGTGFAYWGQGTLVTVSA
VL: DIQMTQSPASLSASVGETVTFTCRASEMIYSYLAWYQQKQGKSPQLLVHDAKTLAEGVPSRFSGGGSGTQFSLKINTLQPEDFGTYYCQHHYGNPPTFGGGTKLEIKR
notes: also called Fab mutant 3; H35-H
Consider B3, for which, in test [2], the binding result was “binds”.

B4: mutant 13B8.2 Fab fragment, CD4 mutant 2 (Y92A) (Fab, V domains shown)
VH: QVQLKQSGPGLVQPSQSLSITCTVSGFSLTTFGVHWVRQSPGKGLEWLGVIWRSGITDYNVPFMSRLSITKDNSKSQVFFKLNSLQPDDTAIYYCAKNDPGTGFAYWGQGTLVTVSA
VL: DIQMTQSPASLSASVGETVTFTCRASEMIYSYLAWYQQKQGKSPQLLVHDAKTLAEGVPSRFSGGGSGTQFSLKINTLQPEDFGTYYCQHHAGNPPTFGGGTKLEIKR
notes: also called Fab mutant 2; Y92-L
With B4, the binding result in test [2] is “binds”.
